Measured values: publication PMC4761961, “In silico selection of an aptamer to estrogen receptor alpha using computational docking employing estrogen response elements as aptamer-alike molecules”

Experiments:
[1] = target: T1, Estrogen receptor alpha (ERα) (human, UniProt P03372 1-595); assay: ITC; ITC: 10 mM Tris-HCl pH 8.0, 25 °C, 1 µM ERα in cell, 10 µM RNA in syringe; ELISA: 100 nM biotinylated ERaptR4, 2 h; western blot: 1 µM ERaptR4; details: chain copies: 2; hairpin
[2] = target: T1, Estrogen receptor alpha (ERα); assay: as above; details: chain copies: 2; hairpin; remark: listed apart in the source

T1 sequence (P03372 whole entry): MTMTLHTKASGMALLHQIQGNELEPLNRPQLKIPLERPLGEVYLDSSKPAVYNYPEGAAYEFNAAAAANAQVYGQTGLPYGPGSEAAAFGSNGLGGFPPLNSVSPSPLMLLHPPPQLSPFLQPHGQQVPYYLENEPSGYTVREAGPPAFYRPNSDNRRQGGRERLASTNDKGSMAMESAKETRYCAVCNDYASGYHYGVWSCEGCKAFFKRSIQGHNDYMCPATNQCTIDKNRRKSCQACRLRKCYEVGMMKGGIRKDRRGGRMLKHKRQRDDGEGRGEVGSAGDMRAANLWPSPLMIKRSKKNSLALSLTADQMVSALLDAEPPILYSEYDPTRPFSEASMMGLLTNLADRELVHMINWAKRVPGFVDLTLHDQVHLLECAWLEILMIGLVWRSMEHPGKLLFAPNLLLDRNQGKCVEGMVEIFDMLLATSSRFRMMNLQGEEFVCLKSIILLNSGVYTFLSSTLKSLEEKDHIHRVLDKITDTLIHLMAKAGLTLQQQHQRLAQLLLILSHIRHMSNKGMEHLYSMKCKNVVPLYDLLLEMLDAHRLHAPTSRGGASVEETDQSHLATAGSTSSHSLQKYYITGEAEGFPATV

| Binder | Ka [1] [M⁻¹] | Ka [2] [M⁻¹] |
| --- | --- | --- |
| GCGGUCACCGUCACCUC (structured_RNA) [ERaptR15] | 9.25e+07 |  |
| AGGGUCAGGGCCACCUG (structured_RNA) [ERaptR3] | 5.24e+07 |  |
| GGGGUCAAGGUCACCGC (structured_RNA) [ERaptR12] | 8.2e+07 |  |
| AGGGUCAUGGUGACCCU (structured_RNA) [ERaptR11] | 8.02e+07 |  |
| GGGGUCAGCUGUGCCCCG (structured_RNA) [ERaptR18] | 9.91e+07 |  |
| UGGUCAGGCUGGUCUCA (structured_RNA) [ERaptR9] | 9.46e+07 |  |
| CCAGGUCACAGUGACCUG (structured_RNA) [ERaptR2] | 7.6e+07 |  |
| CAGGUCAAGGCGAUCUU (structured_RNA) [ERaptR13] | 8.96e+07 |  |
| GGGGUCAAGGUGACCCC (structured_RNA) [ERaptR4] |  | 1.02e+08 |
| GAGGUCACUGAGACCAU (structured_RNA) [ERaptR1] | 9.2e+07 |  |
| CGGGUCACGAUGCCCUA (structured_RNA) [ERaptR7] | 4.82e+07 |  |
| UAGGUCAGUAAGACCUC (structured_RNA) [ERaptR6] | 9.46e+07 |  |
| UUGGUCAAGCUGCCCUC (structured_RNA) [ERaptR17] | 1.26e+08 |  |
| CCAGUCAGUCUGAUUAU (structured_RNA) [ERaptR14] | 7.42e+07 |  |
| AAGGUCACGGUGGCCAC (structured_RNA) [ERaptR5] | 6.82e+07 |  |
| CGGGUCAGGGUGACCUC (structured_RNA) [ERaptR8] | 8.88e+07 |  |
| UUGGUCAGGCUGAUCUC (structured_RNA) [ERaptR16] | 9.4e+07 |  |
